Reference: patent publication US20250188180A1 (BIOINTRON BIOLOGICAL, published 2025)

Tests used:
[1] = molecular target: CD40 antigen on cells (cell-based binding assay) (UniProt P25942); experiment: cell-based binding assay on CD40 cells
[2] = molecular target: T1, CD40 antigen on cells (cell-based binding assay) (UniProt P25942 21-277, limits assumed); experiment: cell-based binding assay, 293F culture supernatant
T1 construct: whole, on cells; the cells are not described
T1 sequence (P25942 21-277 limits assumed): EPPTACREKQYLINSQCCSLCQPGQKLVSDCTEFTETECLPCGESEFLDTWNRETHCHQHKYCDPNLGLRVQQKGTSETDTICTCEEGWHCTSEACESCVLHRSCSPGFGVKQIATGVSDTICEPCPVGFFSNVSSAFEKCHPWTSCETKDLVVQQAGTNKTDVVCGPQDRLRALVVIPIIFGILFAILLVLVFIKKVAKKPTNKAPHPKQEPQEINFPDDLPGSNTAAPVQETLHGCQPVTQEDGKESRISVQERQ

Chain of CD40 antigen on cells (cell-based binding assay) (UniProt P25942) (P25942 21-277 limits assumed): as above

Row | Molecule | X Mean [1] | X Mean [2]
1 | ANb24-Alpaca1-4M-2SP-175 (Fc fusion, also called ANb24-A1-4M-2SP-175; ANb24-Alpacal-4M-2SP-175; not shown: Fc joined to the VHH by overlap PCR) QPHFVESGGGLVQPGGSLRLSCVASGFTFEYVPIGWFRQAPGKEREGVSCITPTGITRNADSVKGRFTISRDNAKNTVYLQLNSLKPEDTAVYYCAKARLLSTSCVQTSDARGQGTQVTVSS | – | 10500
2 | ANb24-Alpaca1-4M-2SP-226 (Fc fusion, also called ANb24-A1-4M-2SP-226; ANb24-Alpacal-4M-2SP-226; not shown: Fc joined to the VHH by overlap PCR) QLQLVESGGGLVQPGGTLRLSCAASGVTLEYYSIGWFRQSPGKEREGVSCISGGGVQRYADSAEGRFAISRDNAKNMVYLQMNNLEPEDTAVYYCARARLLMRGCAPMDNYWGQGTQVTVSS | – | 10700
3 | ANb24-Alpaca1-4M-2SP-149 (Fc fusion, also called ANb24-A1-4M-2SP-149; ANb24-Alpacal-4M-2SP-149; not shown: Fc joined to the VHH by overlap PCR) EVQLVESGGGLVQPGGSLRLSCTASGSTLDIYAIGWFRQAPGKEREGVSCITGSGSSTRYAHSVTGRFTISRDNAKNTVFLQMNSLKPEDTAVYYCAKARLLSRLCVPSPDFESWGQGTQVTVSS | – | 11500
4 | ANb24-Alpaca1-4M-2SP-180 (Fc fusion, also called ANb24-A1-4M-2SP-180; ANb24-Abpacal-4M-2SP-180; not shown: Fc joined to the VHH by overlap PCR) QPQFVESGGGLVQPGGSLRLSCTASGSTLDIYAIGWFRQAPGKEREGVSCITGSGSSTRYADSVTGRFTISRDNAKNTVFLQMNSLKPDDTAVYYCAKARLLSMLCVPSPDFESWGQGTQVTVSS | – | 10800
5 | ANb24-Alpaca1-4M-2SP-273 (Fc fusion, also called ANb24-A1-4M-2SP-273; ANb24-Alpacal-4M-2SP-273; not shown: Fc joined to the VHH by overlap PCR) EVQLVESGGGLVQPGGSLRLSCAASGSTLDYYAIGWFRQAPGKEREGVSCISGSGGSTRYADSVTGRFTISKDSAKNTVYLEMNSLKPEDTAVYYCARARLLSRLCVPSADFDSWGQGTQVTVSS | – | 4420

Next, values leading:

Row | X Mean [1] | X Mean [2] | Molecule
6 | 10700 | – | anti-CD40/APX005M (control antibody)
7 | – | 8970 | ANb24-Alpaca1-4M-2SP-317 (Fc fusion, also called ANb24-A1-4M-2SP-317; ANb24-Alpacal-4M-2SP-317; not shown: Fc joined to the VHH by overlap PCR) QLQLVESGGDLVQPGGSLRLSCTASGHTLEYYAIGWFRQAPGKEREGVSCIIGSGGSTRYFDSVLGRFTISRDNAKNTVFLQMNSLKPEDTAVYYCAKVRLLSRLCVPSSDFDSWGQGTQVTVSS
8 | – | 8960 | ANb24-Alpaca1-4M-2SP-335 (Fc fusion, also called ANb24-A1-4M-2SP-335; ANb24-Alpacal-4M-2SP-335; not shown: Fc joined to the VHH by overlap PCR) QPQFVESGGGLVQPGGTLRLSCAASGFTFEYYTIGWFRQTPGKEREGVSCITAAGVPRNADSAKGRFTISRDNAKNMVYLQMNNLKPEDTAVYYCAQARLLSTSCAPMNDYWGQGTQVTVSS
9 | – | 4080 | ANb24-Alpaca1-4M-2SP-332 (Fc fusion, also called ANb24-A1-4M-2SP-332; ANb24-Alpacal-4M-2SP-332; not shown: Fc joined to the VHH by overlap PCR) QVQLVESGGGLVQPGGSLRLSCAASGSTLASYAIGWFRQAPGKEREGISCISGSGGSTRAADSVQGRFTISRDNAKNTVSLQMNSLKPEDTAIYYCAKVRLLSRGCVPSPDFDSWGQGTQVTVSS
